What was measured:
[1] = target: 4E10-specific MPER peptide (gp41 residues 671-683) (HIV-1); assay: ELISA, peptide coated at 2 ug/ml
[2] = target: full MPER peptide (ELISA; gp41 residues 656-683 with lysine triplicates) (HIV-1); assay: ELISA, peptide coated at 2 ug/ml
[3] = target: Z13e1-specific peptide (gp41 residues 666-677) (HIV-1); assay: ELISA, peptide coated at 2 ug/ml
[4] = target: T1, Sjogren's syndrome antigen B (UniProt P05455 1-408); assay: Luminex AtheNA Multi-Lyte ANA bead assay
T1 construct: Commercial bead antigen; also called SSB; SS-B/La
T1 sequence: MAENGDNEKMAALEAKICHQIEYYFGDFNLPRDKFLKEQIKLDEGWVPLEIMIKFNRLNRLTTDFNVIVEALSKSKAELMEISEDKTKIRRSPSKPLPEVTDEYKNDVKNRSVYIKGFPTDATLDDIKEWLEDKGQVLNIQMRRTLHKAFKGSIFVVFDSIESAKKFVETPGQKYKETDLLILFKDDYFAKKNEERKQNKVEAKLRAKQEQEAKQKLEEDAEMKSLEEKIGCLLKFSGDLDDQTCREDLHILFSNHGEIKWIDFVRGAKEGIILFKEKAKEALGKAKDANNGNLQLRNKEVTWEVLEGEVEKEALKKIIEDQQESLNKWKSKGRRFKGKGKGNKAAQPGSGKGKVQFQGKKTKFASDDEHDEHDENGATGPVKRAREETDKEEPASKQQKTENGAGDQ

scleroderma 70 antigen = target: T2, scleroderma 70 antigen (UniProt P11387 2-765); assay: Luminex AtheNA Multi-Lyte ANA bead assay
T2 construct: Commercial bead antigen; also called Scl 70; Sc1 70
T2 sequence: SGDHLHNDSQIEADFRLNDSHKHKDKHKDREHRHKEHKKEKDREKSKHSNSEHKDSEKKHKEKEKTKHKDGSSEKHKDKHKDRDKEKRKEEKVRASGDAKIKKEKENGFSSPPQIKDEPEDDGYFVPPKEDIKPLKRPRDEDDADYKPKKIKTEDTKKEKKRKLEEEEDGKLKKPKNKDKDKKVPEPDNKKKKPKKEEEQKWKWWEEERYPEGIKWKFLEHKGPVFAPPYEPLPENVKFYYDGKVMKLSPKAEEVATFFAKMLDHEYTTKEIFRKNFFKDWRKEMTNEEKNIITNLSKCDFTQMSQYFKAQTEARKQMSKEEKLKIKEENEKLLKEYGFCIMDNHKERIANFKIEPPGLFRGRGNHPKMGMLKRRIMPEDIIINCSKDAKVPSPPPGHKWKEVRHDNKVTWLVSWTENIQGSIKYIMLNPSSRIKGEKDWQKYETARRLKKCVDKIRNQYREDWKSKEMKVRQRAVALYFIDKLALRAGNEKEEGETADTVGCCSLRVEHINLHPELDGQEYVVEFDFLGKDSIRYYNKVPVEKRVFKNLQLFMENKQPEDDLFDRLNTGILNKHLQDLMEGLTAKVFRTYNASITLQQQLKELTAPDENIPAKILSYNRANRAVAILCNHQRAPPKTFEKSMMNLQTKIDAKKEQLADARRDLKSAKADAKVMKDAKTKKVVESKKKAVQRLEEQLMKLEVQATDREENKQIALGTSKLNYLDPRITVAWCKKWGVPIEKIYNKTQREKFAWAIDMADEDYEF

Jo1 antigen = target: T3, Jo1 antigen (UniProt P12081 2-509); assay: Luminex AtheNA Multi-Lyte ANA bead assay
T3 construct: Commercial bead antigen
T3 sequence: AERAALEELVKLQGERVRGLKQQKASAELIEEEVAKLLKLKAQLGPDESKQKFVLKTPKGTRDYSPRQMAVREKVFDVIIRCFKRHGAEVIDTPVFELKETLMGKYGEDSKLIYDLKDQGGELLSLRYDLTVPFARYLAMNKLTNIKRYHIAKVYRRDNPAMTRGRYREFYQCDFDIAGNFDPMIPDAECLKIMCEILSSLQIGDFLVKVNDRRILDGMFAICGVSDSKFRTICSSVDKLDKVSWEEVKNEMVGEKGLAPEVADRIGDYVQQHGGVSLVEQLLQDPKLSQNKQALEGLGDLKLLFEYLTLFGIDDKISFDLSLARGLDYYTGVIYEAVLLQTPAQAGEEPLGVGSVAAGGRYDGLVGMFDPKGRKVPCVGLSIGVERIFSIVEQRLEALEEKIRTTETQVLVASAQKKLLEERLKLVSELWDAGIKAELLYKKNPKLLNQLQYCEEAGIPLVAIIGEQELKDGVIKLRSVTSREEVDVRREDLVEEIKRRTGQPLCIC

centromere B = target: T4, centromere B (UniProt P07199 2-599); assay: Luminex AtheNA Multi-Lyte ANA bead assay
T4 construct: Commercial bead antigen; also called CentrB
T4 sequence: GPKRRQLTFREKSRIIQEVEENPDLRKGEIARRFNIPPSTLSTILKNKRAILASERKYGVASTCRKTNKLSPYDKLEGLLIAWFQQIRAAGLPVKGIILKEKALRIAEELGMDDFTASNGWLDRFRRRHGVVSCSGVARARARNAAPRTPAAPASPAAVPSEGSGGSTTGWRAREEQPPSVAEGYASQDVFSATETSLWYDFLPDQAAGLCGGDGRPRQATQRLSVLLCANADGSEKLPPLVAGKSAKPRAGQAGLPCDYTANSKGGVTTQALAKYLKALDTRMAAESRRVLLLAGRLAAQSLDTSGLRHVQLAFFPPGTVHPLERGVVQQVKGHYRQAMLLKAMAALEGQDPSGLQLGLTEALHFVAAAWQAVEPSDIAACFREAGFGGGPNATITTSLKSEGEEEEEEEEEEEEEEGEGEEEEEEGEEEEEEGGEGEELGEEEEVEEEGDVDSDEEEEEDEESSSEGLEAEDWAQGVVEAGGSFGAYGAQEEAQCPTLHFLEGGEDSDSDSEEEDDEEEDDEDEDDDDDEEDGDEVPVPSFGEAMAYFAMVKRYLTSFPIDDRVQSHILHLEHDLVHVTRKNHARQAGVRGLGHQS

B1: 10E8 monoclonal antibody (full-length IgG) (antibody, V domains shown)
VH: EVQLVESGGGLVKPGGSLRLSCSASGFDFDNAWMTWVRQPPGKGLEWVGRITGPGEGWSVDYAAPVEGRFTISRLNSINFLYLEMNNLRMEDSGLYFCARTGKYYDFWSGYPPGEEYFQDWGRGTLVTVSS
VL: SYELTQETGVSVALGRTVTITCRGDSLRSHYASWYQKKPGQAPILLFYGKNNRPSGVPDRFSGSASGNRASLTISGAQAEDDAEYYCSSRDKSGSRLSVFGGGTKLTVL
notes: also called mAb 10E8; wild-type 10E8
What does the source list for B1?
binding result [1]: binds; binding result [2]: binds; binding result [3]: no binding; binding result [4]: no binding (tested: 50 ug/ml (highest concentration assayed)); binding result (scleroderma 70 antigen): no binding (tested: 50 ug/ml (highest concentration assayed)); binding result (Jo1 antigen): no binding (tested: 50 ug/ml (highest concentration assayed)); binding result (centromere B): no binding (tested: 50 ug/ml (highest concentration assayed))

Reference: US20140348785A1 (US Dept. of Health and Human Services, published 2014)
